# According to the Human Domainome abundance scans (Beltran et al. 2025):
# ± gives the uncertainty stated by the source.
# B1: Tumor protein 63, residues 545 to 610; numbered along this chain, Q9H3D4 (parent)
# chain: TDCSIVSFLARLGCSSCLDYFTTQGLTTIYQIEHYSMDDLASLKIPEQFRHAIWKGILDHRQLHEF
# Variants of: B1
# Experiment: abundance fitness (aPCA) (normalised: wild type 0, dead -1); higher = more abundant; growth selection in yeast, the domain comes from the species named
# Details: Homo sapiens
row,Variant,abundance fitness
1,R61V,-0.067 ± 0.026
2,L9K,-1 ± 0.09
3,H51K,-0.012 ± 0.031
4,R11C,-0.155 ± 0.035
5,C3D,-0.043 ± 0.029
6,S42D,0.008 ± 0.041
7,E65C,-0.023 ± 0.065
8,H34P,-0.188 ± 0.026
9,Q24L,-0.081 ± 0.021
10,S42H,-0.011 ± 0.021
11,Q48M,-0.028 ± 0.034
12,P46S,-0.351 ± 0.029
13,R11K,-0.02 ± 0.037
14,Y20I,-0.002 ± 0.039
15,C17D,-1.05 ± 0.14
16,D38K,-0.035 ± 0.13
17,H34Q,-0.041 ± 0.032
18,S36V,-0.09 ± 0.025
19,Q31I,-0.86 ± 0.045
20,I5Y,-0.971 ± 0.093
21,I32C,-0.249 ± 0.046

row,Variant,abundance fitness
1,L18H,-0.126 ± 0.023
2,H34C,-0.141 ± 0.049
3,T27R,-0.053 ± 0.022
4,L18F,-0.16 ± 0.031
5,D38M,0.048 ± 0.26
6,I29K,-0.366 ± 0.036
7,T1H,-0.361 ± 0.15
8,I45W,-0.967 ± 0.062
9,R11T,-0.023 ± 0.03
10,D39Q,-0.032 ± 0.044
11,S42I,0.004 ± 0.034
12,I45Q,-0.965 ± 0.15
13,T23N,0.002 ± 0.041
14,I57Y,-0.918 ± 0.086
15,S4V,-0.632 ± 0.027
16,T22D,-0.039 ± 0.037
17,S4T,-0.04 ± 0.019
18,D59M,-0.066 ± 0.034
19,E33S,-0.052 ± 0.036
20,L43H,-0.296 ± 0.057
21,Y20G,-0.268 ± 0.022

row,Variant,abundance fitness
1,W54S,-0.055 ± 0.097
2,S42M,-0.001 ± 0.023
3,W54N,-0.03 ± 0.12
4,H64N,-0.007 ± 0.041
5,L9G,-0.622 ± 0.039
6,Q31G,-0.274 ± 0.031
7,L12S,-0.119 ± 0.028
8,D2P,-0.132 ± 0.033
9,S42Q,-0.001 ± 0.038
10,S16W,-0.165 ± 0.037
11,S16D,-0.012 ± 0.032
12,T1G,-0.027 ± 0.029
13,Q62D,-0.03 ± 0.033
14,S15P,-0.086 ± 0.031
15,M37W,-0.071 ± 0.044
16,H34F,-0.102 ± 0.033
17,T27W,-0.135 ± 0.03
18,A52V,-0.013 ± 0.023
19,A10L,-0.063 ± 0.037
20,P46A,-0.406 ± 0.035
21,L9F,-0.626 ± 0.07

row,Variant,abundance fitness
1,D59C,-0.058 ± 0.037
2,H51C,-0.034 ± 0.029
3,S7I,-0.234 ± 0.064
4,S7P,-0.113 ± 0.036
5,C14H,-0.12 ± 0.035
6,K44N,-0.021 ± 0.045
7,E65N,-0.027 ± 0.068
8,F49E,-0.007 ± 0.036
9,I53Q,-0.99 ± 0.14
10,C17I,-0.124 ± 0.032
11,D39L,-0.238 ± 0.025
12,L43C,-0.171 ± 0.044
13,Q48V,-0.027 ± 0.022
14,L40Y,-0.277 ± 0.041
15,Q62Y,-0.083 ± 0.042
16,T28K,-0.028 ± 0.033
17,P46K,-0.384 ± 0.052
18,E65T,-0.049 ± 0.066
19,S7D,-0.056 ± 0.047
20,L26N,-0.414 ± 0.041
